Data: patent US20210301018A1 (ITABMED HK, published 2021)

Key:
[1] = target: T1, human CD19 on cells (human B lymphocytes; Raji, Daudi and Reh tumor cells) (human, UniProt P15391 20-556); assay: cell-based or functional assay
T1 sequence (looked up): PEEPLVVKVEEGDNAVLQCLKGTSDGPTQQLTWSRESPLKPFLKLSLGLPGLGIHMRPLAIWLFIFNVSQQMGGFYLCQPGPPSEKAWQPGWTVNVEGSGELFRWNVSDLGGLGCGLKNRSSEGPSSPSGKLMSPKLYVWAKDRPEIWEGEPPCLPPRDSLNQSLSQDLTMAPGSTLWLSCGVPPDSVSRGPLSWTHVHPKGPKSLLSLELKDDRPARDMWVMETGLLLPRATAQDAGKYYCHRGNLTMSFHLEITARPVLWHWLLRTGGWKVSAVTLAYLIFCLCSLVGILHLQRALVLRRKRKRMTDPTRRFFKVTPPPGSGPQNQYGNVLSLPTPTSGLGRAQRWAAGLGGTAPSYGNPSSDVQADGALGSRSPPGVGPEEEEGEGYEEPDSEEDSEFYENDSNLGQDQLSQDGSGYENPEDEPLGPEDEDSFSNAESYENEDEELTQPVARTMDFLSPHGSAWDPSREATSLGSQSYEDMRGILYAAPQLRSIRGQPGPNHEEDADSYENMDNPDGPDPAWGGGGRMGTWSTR

[2] = target: T2, Recombinant Human CD19 Fc Chimera (R&D Systems) (human, UniProt P15391 20-291); assay: BLI (Octet QKe), antigen-Fc captured on AHC sensor, ITAB2009 in solution
T2 construct: Bought reagent; also called huCD19.Fc; not shown: Fc of the bought chimera
T2 sequence (looked up): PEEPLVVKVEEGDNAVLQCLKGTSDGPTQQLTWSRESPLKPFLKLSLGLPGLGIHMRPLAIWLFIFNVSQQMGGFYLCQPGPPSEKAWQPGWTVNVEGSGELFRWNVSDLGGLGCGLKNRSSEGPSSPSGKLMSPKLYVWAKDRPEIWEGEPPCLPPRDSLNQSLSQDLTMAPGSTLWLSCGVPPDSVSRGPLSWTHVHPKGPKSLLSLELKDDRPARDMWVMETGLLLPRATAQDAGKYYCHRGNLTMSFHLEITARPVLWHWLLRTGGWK
Procedure: (§1) The human CD3 antigen construct (CD3εAA 1-27.Fc) and the cynomolgus monkey CD3 antigen construct (cynoCD3εAA 1-27.Fc) each consists of a peptide of amino acid residues 1-27 of CD3ε connected to a human IgG Fc. The expression of the antigen constructs is described in U.S. Pat. No. 8,846,042. The CD3 or CD19 antigen constructs (Cynomolgus/Rhesus CD19 Protein (Fc Tag), Sino Biological. Inc.; Recombinant Human CD19 Fc Chimera, R&D Systems. Inc.) were diluted to 0.02 mg/mL with dilution buffer (PBS), and then immobilized on an anti-Human Fc capture (AHC) biosensor. […] The control wells containing only PBS were also set up. The detection results were analyzed using ForteBio Data Analysis software.

[3] = target: T3, Cynomolgus/Rhesus CD19 Protein (Fc Tag) (Sino Biological) (cynomolgus monkey / rhesus, UniProt F7F486 20-292 (rhesus entry)); assay: as above
T3 construct: Bought reagent; also called cynoCD19.Fc
T3 sequence: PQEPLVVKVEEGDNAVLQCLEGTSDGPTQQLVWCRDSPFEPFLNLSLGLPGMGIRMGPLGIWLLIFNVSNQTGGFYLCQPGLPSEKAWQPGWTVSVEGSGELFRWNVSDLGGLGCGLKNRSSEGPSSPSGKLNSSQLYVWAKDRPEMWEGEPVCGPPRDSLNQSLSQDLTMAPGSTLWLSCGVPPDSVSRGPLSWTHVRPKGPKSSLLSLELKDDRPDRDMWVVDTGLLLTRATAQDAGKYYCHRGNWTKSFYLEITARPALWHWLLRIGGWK
Procedure: as §1

[4] = target: T4, cynomolgus monkey CD3 antigen construct cynoCD3εAA 1-27.Fc (cynomolgus monkey; human, UniProt Q95LI5 22-48); assay: as above
T4 construct: range 1-27
T4 chain (looked up): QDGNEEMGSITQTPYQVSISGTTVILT
Procedure: as §1

[5] = target: T1, human CD19 on cells (human B …); assay: flow cytometry, binding rate on B cells in human PBMC, detection with anti-human Ig κ light chain
Procedure: (§2) About 3.6×10⁵ PBMCs (huPBMC or cynoPBMC) per well were added to a 96-well plate. […] Cells were washed with FACS buffer once, resuspended in 50 μL FACS buffer, supplemented with Antibody PE Mouse Anti-Human CD20 (BD Pharmingen™), FITC Mouse Anti-Human CD4 (BD Pharmingen™), and APC Mouse anti-Human Ig, κ Light Chain (BD Pharmingen™), and incubated at room temperature for 45 min. 200 μL FACS buffer was finally added, and the samples were analyzed using ACCURI® C6 Cytometer (BD Biosciences).
(§3) Binding rate was plotted against the y-axis, and drug concentration was plotted against the x-axis. The curve was fitted using a 4-parameter logistic model to determine EC50.

[6] = target: T5, human CD3 on human T lymphocytes (huPBMC) (human, UniProt P07766 23-207); assay: flow cytometry, binding rate on T cells in human PBMC, detection with anti-human Ig κ light chain
T5 construct: whole, on cells; also called huCD3; cell surface antigen CD3 on human T cells
T5 sequence (P07766 23-207): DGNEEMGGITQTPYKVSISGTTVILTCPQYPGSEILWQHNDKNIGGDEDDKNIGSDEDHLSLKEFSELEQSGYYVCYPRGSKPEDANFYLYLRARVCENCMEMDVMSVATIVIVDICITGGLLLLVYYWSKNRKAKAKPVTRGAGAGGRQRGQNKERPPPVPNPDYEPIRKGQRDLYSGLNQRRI
Procedure: as §2, §3

[7] = target: T6, cynomolgus monkey CD19 on cynomolgus monkey B lymphocytes (cynoPBMC) (cynomolgus monkey, UniProt A0A2K5W8L9 20-557); assay: flow cytometry, binding rate on B cells in cynomolgus monkey PBMC, detection with anti-human Ig κ light chain
T6 construct: whole, on cells; also called cynoCD19; cell surface antigen CD19 on cynomolgus monkey B cells
T6 sequence: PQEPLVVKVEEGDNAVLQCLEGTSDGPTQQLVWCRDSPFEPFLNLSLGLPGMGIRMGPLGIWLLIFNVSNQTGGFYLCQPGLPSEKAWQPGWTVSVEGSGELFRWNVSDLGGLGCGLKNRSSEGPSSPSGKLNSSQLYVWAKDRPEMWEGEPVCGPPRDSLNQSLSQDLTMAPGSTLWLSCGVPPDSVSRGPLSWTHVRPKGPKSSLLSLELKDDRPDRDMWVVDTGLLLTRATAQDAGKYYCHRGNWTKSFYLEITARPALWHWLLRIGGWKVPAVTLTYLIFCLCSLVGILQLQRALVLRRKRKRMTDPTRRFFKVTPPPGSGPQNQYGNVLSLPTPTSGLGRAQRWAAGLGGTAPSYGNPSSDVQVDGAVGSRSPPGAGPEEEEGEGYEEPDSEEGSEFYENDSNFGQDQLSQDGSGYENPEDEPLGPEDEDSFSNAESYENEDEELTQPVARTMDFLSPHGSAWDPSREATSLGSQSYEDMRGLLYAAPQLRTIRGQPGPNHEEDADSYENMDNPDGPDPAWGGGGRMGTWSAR
Procedure: (§4) CynoPBMC Preparation: Whole blood samples from cynomolgus monkeys were diluted with PBS buffer (Gibco), centrifuged by density gradient centrifugation using 90% Ficoll-Paque isolation buffer (obtained by diluting Ficoll-Paque with PBS, Ficoll-Paque, GE Healthcare) to obtain PBMC, washed twice with PBS, then centrifuged at room temperature, 1000 g for 10 min. Cells were collected, and resuspended in RPM′ 1640 Medium (Gibco) containing 10% FBS.
as §2, §3

[8] = target: T7, cynomolgus monkey CD3 on cynomolgus monkey T lymphocytes (cynoPBMC) (cynomolgus monkey, UniProt Q95LI5 22-198); assay: flow cytometry, binding rate on T cells in cynomolgus monkey PBMC, detection with anti-human Ig κ light chain
T7 construct: whole, on cells; also called cynoCD3; cell surface antigen CD3 on cynomolgus monkey T cells
Procedure: as §4, §2, §3

B1: CD19×CD3 bispecific antigen binding protein ITAB2009 (bispecific antibody)
chain: EVQLVESGGGLVQPGGSLRLSCAASGFTFNTYAMNWVRQAPGKGLEWVARIRSKYNNYATYYADSVKDRFTISRDDSKNTLYLQMNSLRAEDTAVYYCVRHGNFGNSYVSWFAYWGQGTMVTVSSGGGGSGGGGSGGGGSQAVVTQEPSLTVSPGGTVTLTCRSSTGAVTTSNYANWVQQKPGQAPRGLIGGTNKRAPGTPARFSGSLLGGKAALTLSGVQPEDEAEYYCALWYSNLWVFGGGTKLTVLSGGGGSQVQLVQSGPELIKPGGSVKMSCKASGYTFTSYVMHWVRQKPGQGLEWIGYINPYNDGTKYNEKFKGRATLTSDKSSSTAYMELSSLRSEDSAVYYCARGTYYYGSRVFDYWGQGTTVTVSSASTKGPSVFPLAPSSKSTSGGTAALGCLVKDYFPEPVTVSWNSGALTSGVHTFPAVLQSSGLYSLSSVVTVPSSSLGTQTYICNVNHKPSNTKVDKKVEPKSCPPCS
light: DVVMTQSPSSIPVTLGESVSISCRSSKSLQNVNGNTYLYWFQQRPGQSPQLLIYRMSNLNSGVPDRFSGSGSGTDFTLRISGVEPEDVGVYYCMQHLEYPITFGAGTKLEIKRTVAAPSVFIFPPSDEQLKSGTASVVCLLNNFYPREAKVQWKVDNALQSGNSQESVTEQDSKDSTYSLSSTLTLSKADYEKHKVYACEVTHQGLSSPVTKSFNRGECPPCS
notes: Anti-CD3 scFv joined to the N-terminus of the VH of the anti-CD19 Fab; also called CD19×CD3 BSAP ITAB2009; ITB2009
What does the source list for B1?
EC50 of CD19×CD3 BSAP mediated human PBMC cytotoxicity against tumor cells (Daudi) [1]: 0.06 ng/mL; EC50 of CD19×CD3 BSAP mediated human PBMC cytotoxicity against tumor cells (Raji) [1]: 0.04 ng/mL; EC50 of CD19×CD3 BSAP mediated human PBMC cytotoxicity against tumor cells (Reh) [1]: 0.24 ng/mL; Kd [2]: 0.0182 µM; Kd [3]: 0.0296 µM; Kd [4]: 0.0129 µM; EC50 [5]: 35 ng/mL; EC50 [6]: 204 ng/mL; EC50 [7]: 1900 ng/mL; EC50 [8]: 115 ng/mL
